Legend:
[1] = target: T1, N-terminus of human CENP-A peptide
T1 chain: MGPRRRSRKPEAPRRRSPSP

[2] = target: T2, mutated H3 (K9L) N-terminal peptide
T2 chain: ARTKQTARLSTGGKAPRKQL

[3] = target: wild-type N-terminus of human histone H3 peptide (aa 1-20)
[4] = target: T3, N-terminus of rat macro-H2A peptide
T3 chain: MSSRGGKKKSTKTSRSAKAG

B1: triple myc-tagged full-length human SUV39H1 (aa 3-412) (protein)
chain: ENLKGCSVCCKSSWNQLQDLCRLAKLSCPALGISKRNLYDFEVEYLCDYKKIREQEYYLVKWRGYPDSESTWEPRQNLKCVRILKQFHKDLERELLRRHHRSKTPRHLDPSLANYLVQKAKQRRALRRWEQELNAKRSHLGRITVENEVDLDGPPRAFVYINEYRVGEGITLNQVAVGCECQDCLWAPTGGCCPGASLHKFAYNDQGQVRLRAGLPIYECNSRCRCGYDCPNRVVQKGIRYDLCIFRTDDGRGWGVRTLEKIRKNSFVMEYVGEIITSEEAERRGQIYDRQGATYLFDLDYVEDVYTVDAAYYGNISHFVNHSCDPNLQVYNVFIDNLDERLPRIAFFATRTIRAGEELTFDYNMQVDPVDMESTRMDSNFGLAGLPGSPKKRVRIECKCGTESCRKYLF
Histone H3
  in vitro HMTase activity (transfer of 14C-methyl label to free histones, fluorography): indicating selective transfer of the methyl-label to H3

B2: murine GST-Suv39h1 product comprising aa 7-221 (protein)
chain: GCSVCCKSSWNQLQDLCRLAKLSCPALGVSKKNLYDFEVEYLCDYKKIREQEYYLVKWRGYPDSENTWEPRQNLKCIRVLKQFHKDLERELVRRHRRSKPPRHLDPNLANYLVQKAKQRRALQRWEQELNAKRSHLGRITVENEVDLDGPPRSFVYINEYRVGEGITLNQVAVGCECQDCLLAPTGGCCPGASLHKFAYNDQGQVRLKAGQPIYE
Histone H3
  in vitro HMTase activity (free histones, fluorography): proved negative, even at higher protein concentrations

B3: triple myc-tagged C-terminally truncated SUV39H1 protein (aa 3-118) (protein)
chain: ENLKGCSVCCKSSWNQLQDLCRLAKLSCPALGISKRNLYDFEVEYLCDYKKIREQEYYLVKWRGYPDSESTWEPRQNLKCVRILKQFHKDLERELLRRHHRSKTPRHLDPSLANYL
Histone H3
  in vitro HMTase activity (transfer of 14C-methyl label to free histones, fluorography): no signals were detected with extracts from a HeLa cell line that expresses only the N-terminal third of SUV39H1 (aa 3-118)

B4: murine GST-Suv39h1(aa 82-412) (protein)
chain: CIRVLKQFHKDLERELVRRHRRSKPPRHLDPNLANYLVQKAKQRRALQRWEQELNAKRSHLGRITVENEVDLDGPPRSFVYINEYRVGEGITLNQVAVGCECQDCLLAPTGGCCPGASLHKFAYNDQGQVRLKAGQPIYECNSRCCCGYDCPNRVVQKGIRYDLCIFRTNDGRGWGVRTLEKIRKNSFVMEYVGEIITSEEAERRGQIYDRQGATYLFDLDYVEDVYTVDAAYYGNISHFVNHSCDPNLQVYNVFIDNLDERLPRIAFFATRTIWAGEELTFDYNMQVDPVDMESTRMDSNFGLAGLPGSPKKRVRIECKCGTTACRKYLF
Histone H4
  in vitro methylation of individual histones (fluorography): no signals are detected with H2A, H2B or H4
Histone H2B
  in vitro methylation of individual histones (fluorography): no signals are detected with H2A, H2B or H4
[1]
  in vitro methylation of N-terminal peptides (SDS-PAGE, fluorography): no signals were detected with the CENP-A or macroH2A peptides, or with insulin
[2]
  in vitro methylation of N-terminal peptides (SDS-PAGE, fluorography): the mutated H3 (K9L) peptide was not a substrate
Histone H1
  in vitro methylation of individual histones (fluorography): A weak signal is present if H1 was used as the sole substrate
[3]
  3H-incorporation of individual amino acids (microsequencing of the in vitro methylated peptide, scintillation counting): The results confirmed selective transfer of methyl-label to lysine 9
  in vitro methylation of N-terminal peptides (SDS-PAGE, fluorography): selective methylation of the wild-type H3 peptide
insulin
  in vitro methylation of N-terminal peptides (SDS-PAGE, fluorography): no signals were detected with the CENP-A or macroH2A peptides, or with insulin
Histone H2A
  in vitro methylation of individual histones (fluorography): no signals are detected with H2A, H2B or H4
[4]
  in vitro methylation of N-terminal peptides (SDS-PAGE, fluorography): no signals were detected with the CENP-A or macroH2A peptides, or with insulin
Histone H3
  in vitro HMTase activity (free histones, fluorography): maintained HMTase activity (although at a reduced level as compared to transfected SUV39H1)
  in vitro methylation of individual histones (fluorography): H3 is specifically methylated by GST-Suv39h1(aa 82-412)

From US20050089880
